Assay results from IntAct's records for PubMed 22751141.

Molecular target: GATA3, P23771-2
Sequence (P23771 other isoform, or with tags, fused parts or gaps): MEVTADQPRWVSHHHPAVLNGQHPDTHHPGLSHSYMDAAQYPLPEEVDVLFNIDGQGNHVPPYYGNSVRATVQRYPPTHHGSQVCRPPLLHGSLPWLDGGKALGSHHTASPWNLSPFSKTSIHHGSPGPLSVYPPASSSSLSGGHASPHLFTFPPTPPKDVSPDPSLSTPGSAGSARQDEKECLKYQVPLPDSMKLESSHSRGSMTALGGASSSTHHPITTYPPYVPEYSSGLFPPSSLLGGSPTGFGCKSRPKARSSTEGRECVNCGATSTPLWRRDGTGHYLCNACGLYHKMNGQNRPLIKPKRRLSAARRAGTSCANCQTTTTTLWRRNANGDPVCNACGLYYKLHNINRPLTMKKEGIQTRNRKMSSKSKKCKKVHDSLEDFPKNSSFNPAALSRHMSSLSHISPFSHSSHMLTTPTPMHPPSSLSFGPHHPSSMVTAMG

effect of a mutation on the interaction	Substance
decreasing interaction	Transcription factor SOX-4 (Mus musculus), Q06831 F66A;M67A
decreasing interaction	Transcription factor SOX-4 (Mus musculus), Q06831 R61A;P62A
